In the DeepSol protein solubility set:

Test: soluble on expression in E. coli; label from the status in PepcDB or PDB records

Sequence | soluble on expression in E. coli
MGSDKIHHHHHHMIDFLDVQKETPRIRIAIDRVGVKNIKFPLKIHDDFAFLTLNLFVDVPADRKGADMSRAVESIQKVINAGSYGERIGDIGIAICDEALSRFNYSEKAQCEVNIQYYRRSGERYLEYRMYVETAKDRKQIMKNEIGISYVTMTACPCAMETTRALISMDNPDISDAISAIPTITHNQRNVTKLTVDNRSKMITVWDLADVMERVQGKPLDSLLKRVEEGRLVYSAHRNPKFVEDVVREIAYEAARVLGVPDEATIKVSSESDESIHPHNAYAEIDTTAGELRKLHLH | not soluble
MAYWLFKTEPDTFSIDTLRTQKVSCWEGVRNYQARNMMRDQVKVGDFVLIYHSSCKNVGVAGIAKVVREAYPDHFQFDPESDYYDPKSDPDNPRWIMVDIEFVRKTARVIPLSVMKAMPELENMPLVKRGNRLSIMPVTEDEWEAILGKEKLPSQRLEHHHHHH | soluble
EVVVVGYGTMKRSDLTGSVASIAAKDVEGFKTSSVAGALGGQIAGVQITSTDGTPGAGFSINIRGVGTLTGDSSPLYIVDGFEVDDIDYLSNSDIESIEVLKDASSSAIYGARAANGVVLITTKSGK | not soluble
MPRPKILKRATVQPSAAVPVKKSTPEKEGSRQKKTNGKENASRNLQSNLEEDLEQLGFEDETVSMAQSAIENYFMQGKSASERMNNAKSRRGRRAGNGNTEEIEEDDEISNAITDFTKCDLPGLRNYITKKDNTEFEKRLEHLADNDFGKWKLYLAAGFNILLHGVGSKRDVLTEFENELSDYTYMRVDARKDGLNVKVLLGAINENMKLNCNVKRGQSTISWARSIRRKMNSQQLILIIDNIEAPDWRSDQEAFCELLENRDSVKLIATVDHIYSTFIWNSRQLSSLSFVHITINTFEIPLQELMTGDSRLLGLDARSNQSSHTMSSLDVFWKSLAVNSQKLFRLFFQMYFDTKKPVKFWDLFNAAKDDFIASTDAALRTQLVEFKDHRVLKWTRGDDGNDQLSGIVELRLVTEFLESKNMPLDEKKDE | not soluble
MSLDRQLWRQFPQVEPQLTALQDYLLRTVQLDNQPIHHKILALLKSGGKLLRPGYFYLFSTFGNAATPAQLQAGAAAIEILHVGTLIHDDVIDDSPTRRGVRTIQMTYGQRNAIYAGDFMFTVYFDQVLKSTTDRSLIQNHIDAMHRILQGELHQMDLNYREDITLDAYLNEIAGKTAELFALSCYQGAQLAGAPQSVIDRTRDIGIAIGCAYQMLDDILDYAGDPKRTQKPVLEDLRSGVYSLPLLLSLSHAPRDFHKLLKKKQAMTLEDIKHVQALVAQYDGVGAAKQLAQDYTDRALTLIQQLPVGSAQQSLEQLTRLLLRRDHEGHHHHHH | soluble
MELSLSRVHFPVTTLGPGRRLGIWFQGCSIRCPGCISADTWGPGRRRIALARLLADIQPWLEQAEGITVSGGEPFEQFAALLALLGELRRRSRADILVYSGYPLEHLHAQLEQAAGLIDALISDPYQQHAEQSLALRGSDNQRLSLLTELGRARLGGYQRPLREDDKALDLMFDHDGSVWMAGIPRRDDLLRLQDLLREQGHQLSVSAHRPR | not soluble
MGSSHHHHHHSSGLVPRGSHMNKPIGVIDSGVGGLTVAKEIMRQLPNETIYYLGDIGRCPYGPRPGEQVKQYTVEIARKLMEFDIKMLVIACNTATAVALEYLQKTLSISVIGVIEPGARTAIMTTRNQNVLVLGTEGTIKSEAYRTHIKRINPHVEVHGVACPGFVPLVEQMRYSDPTITSIVIHQTLKRWRNSESDTVILGCTHYPLLYKPIYDYFGGKKTVISSGLETAREVSALLTFSNEHASYTEHPDHRFFATGDTTHITNIIKEWLNLSVNVERISVND | soluble
MGSDKIHHHHHHMGIRAGESGNSLSKALLEIEKEQPAPCYLLYGDAEYEISDAFTKIIDALLSPEDQALNLFVLDGEDEDPERIGENLMTPPLLPGRKVVAVRRTQLFSSRKTLKDLVKRIREQLNGKPQQAAKTFMTFLSLAGWNLEDFKGDGWKAISDKDWQTTVEGDAGEDRIKWLPQVVEVCVDLGLKGRSATGGGTDHLEAILRDGLPAGNVLLLTAESVDKRKKLFKTISELGRVLPFVVEKGEARQKNTLMDSARDLLATRGKRMSSGAWEVLGRKTGFQLRNSMAALEKLITYTGERKTIEVSDVEEVISRTREDKVFDLTAALAEKNLKGALSVLRSLREQGIHSLVILSMIVREMRLLLHARQLRNEGALPGYQPRMDYGRFQKSIYPTVKGWAGQAGDVHIELADSHPYVVFNILRNSENFSEKRLKRHLEDLLAMDLAMKSTAKDADLMLERFLIDVCRP | not soluble
MGSSHHHHHHGKTIFVIVPTNEEQVAFLEALAKQDELNFDWQNPPTEPGQPVVILIPSDMVEWFLEMLKAKGIPFTVYVEEGGSENLYFQGGGGGGLQLKSHQRLAEKPRRDAFVPRAYTVEELAQFDGKKKPQVFVGVKGIIYNVSLEWYGPEGPYSAFAGCDSSRQLGKVIVGRDEINADWTTLAPEHLKTLHEWEERFHSKYPAVGWITDPNKNFVKRAASLSP | not soluble
MSLGLHITDQQVHRYMSQRRHHTQAVAAAKAGISERSARRIDKNPQLPSQKKRERHWRTRPDPLEQIWPRVEELLKIAGILSVTIFETVQDEFGEAAVPDGVRRTLERRIARWRALNGGEKEIFFPQHHEIGRQGLLDFTVADDLHVTIAGQRFDHRLFHFRLASSGWEDSAVVLGGESFTALSEHLQDALWKLGGVPAELRSDSLSAAYKNLDADAQRDFTRNYEALCRHYGMTPTRNNKGVAHENGSIEAPNGHLKRRMDQALRRRSSRDFPSIEDYRRFVDQEVAKQNRRRARLMDDERRVLKSLPPKRTTDFTLVSADVTRNSTISVDRVTYSVPSRLIGYRLHAHLYDDRVEFFLGPDQVMTADRVRVKHAERGHNIDFRHFIGNLKRKPQALRYLVYRNALFPTHAYTRAWQALDAALDARQACRDMVALLDIAANGNCVDALALRIEAALDRGKLPNVAKLKSEFLPTVRSRVDVTIPPPDFAGYNHLLANAQEGHHHHHH | not soluble
MSLARQNRFDRTSFQTQIIDLSHDGRGVARPHGEGDKVTFVTGALPGEVVIVEPVARNRHFDEARVVEVLQASPQRVIPRCSHFGVCSGCVLQHLAEDAQVVSKQRVLLESLERIGRVSPERVLPALAAESWGYRRKGRFSVRWVEKKGRTLVGFREHDPRFVADVSVCHTVVPQVGEKIALLATLLNSLDGRRDVPQIEFIAGDAVVALTVRHLQPLSEADRLALIEFGKEHGIAIFLQSGGVESVRLLWPDEVLLAFRLKPWDVEFVFRPLDFIQINGGLNEKMIAHALDLLGAGFGERVLDLFCGLGNFTLPLARTVDEVVGVEGDIGLVERARENARRNGLGNAEFFVADLTRDQRDAPWMRQGFDKLLLDPPRSGAIEVLKQLPLKMFERIVYVSCHPGSLARDADFLVNEQGFVLRAVGAMDMFPHTAHVESIAVFDRCEGHHHHHH | soluble
MGSDKIHHHHHHMVRLNEIKMQDGKIFLITGANSGLGYETSKFLLERGATVIMCCRDLLKGEKAKKELLKFKFSGKIELVELDLSDLINVKKFAESIKNTFDHLDVLINNAGIMAPPKTLSKQGFEIQFAVNHLAHMFLTLELLPMLEEKNNSRVVTVTSGVQYFGKIQWEDLQGNLKYDRWASYAQSKLANVMFGLELDSKLKETNSKTSSLLAHPGFARTNLQPKSVEANQSWQEELAYKLMDPMFQSAKMGALPQITAATLTSASGGEQYGPRFNFRGFPKICRNAPKALNQTSRKKLWDISEKLIKDFDTLSKQSK | not soluble
MMRGGMGNMNNMMKQMQKMQKDMAKAQEELGEKTVEGTAGGGMITVIANGHKQILEVKIKEEVVDPEDIEMLQDLVLAATNDALKKADELSNSTMGKFTKGLNLPGGMF | not soluble
MSTDVAAAQAQSKIDLTKKKNEEINKKSLEEDDEFEDFPIDTWANGETIKSNAVTQTNIWEENWDDVEVDDDFTNELKAELDRYKRENQ | soluble
MSLHGEKAPFPLTLIHINDLHARFDETNQKSSTCTNSKECIAGIARVYHTIKQLKSEYKTKNPLYLNAGDNFQGTLWYNLLRWNVTAYFIKELPPDAMTLGNHEFDHSPKGLAPYLAELEKMKIPTVVANLEKNGEPALKDSKIARSIVLKVGNRKVGVIGALYDKTHLVAQTGMVTLTNSIEAVRKEAQELKKKNVNIIVVLSHCGLDGDKQLAEEAGDLIDVIVGAHSHSLLLNKDAKVPYDTKYDTIEGDYPLVVKKSNNHTVLITQARSFGKYVGRLTVNFDCEGEVQSWEGYPIYMNNSVKEGHHHHHH | soluble
